According to patent publication US6602660:

Experiments:
[1] = target: MUC-1 mucin expressed on the surface of PHA activated human T-cells (human) (UniProt P15941); test: cell-based or functional assay
[2] = target: Anti-human-MUC-1 mAb B27.29; test: flow cytometry; soluble MUC-1 mucin (1 µg) inhibits B27.29 staining of 3 day PHA activated T-cells
[3] = target: Anti-human-MUC-1 mAb B27.29; test: flow cytometry; soluble MUC-1 mucin (50 µg) inhibits B27.29 staining of 3 day PHA activated T-cells
[4] = target: Anti-human-MUC-1 mAb B27.29; test: flow cytometry; soluble MUC-1 mucin (10 µg) inhibits B27.29 staining of 3 day PHA activated T-cells

Effect on T-cell proliferation (% Inhibition) at 5 µg/ml [1]	Effect on T-cell proliferation (% Inhibition) at 25 µg/ml [1]	% inhibition of binding [2]	% inhibition of binding [3]	% inhibition of binding [4]	Substance
58%	82%				Anti-human-MUC-1 mAb B27.29 (antibody)
		25%	65%	45%	soluble MUC-1 mucin (from UniProt P15941 24-1097)
